Test results from PMC4248446.

Molecular target: receptor for advanced glycation end products (RAGE) (human (endogenous in HPAEC)) (UniProt Q15109)
Sequence of UniProt Q15109 (Q15109 23-404): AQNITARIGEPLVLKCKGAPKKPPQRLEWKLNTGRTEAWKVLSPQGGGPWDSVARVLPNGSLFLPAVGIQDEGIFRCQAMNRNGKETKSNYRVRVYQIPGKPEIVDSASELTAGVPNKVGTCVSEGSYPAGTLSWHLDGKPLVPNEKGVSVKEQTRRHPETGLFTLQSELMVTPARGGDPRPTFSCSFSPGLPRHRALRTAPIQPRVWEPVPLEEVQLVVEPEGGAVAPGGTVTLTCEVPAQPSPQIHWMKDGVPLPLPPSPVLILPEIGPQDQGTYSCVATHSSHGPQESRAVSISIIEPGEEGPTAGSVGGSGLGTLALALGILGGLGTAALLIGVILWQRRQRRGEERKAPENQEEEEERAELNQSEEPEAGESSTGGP

Which ET-1 release from HPAECs induced by HMGB1 (40 ng/ml), ELISA of the culture supernatant, with anti-RAGE antibody (ab3611; Abcam; 1 μg/ml) co-treated does the source give for “recombinant high mobility group box-1 (HMGB1) (from UniProt P09429 1-215) (ligand)” here?
Its ET-1 release from HPAECs induced by HMGB1 (40 ng/ml), ELISA of the culture supernatant, with anti-RAGE antibody (ab3611; Abcam; 1 μg/ml) co-treated is 349 pg/mL.
